# According to the nanobody polyreactivity screen of Harvey et al. (2022):
# Test: yeast display, Sf9 membrane polyspecificity reagent, FACS + sequencing; frameworks hold sequencing errors
# Summary of the method: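 After 36–48 hours of galactose induction, yeast (Saccharomyces cerevisiae BJ5465) displaying a synthetic nanobody library were stained at 4 °C for 1 hour with 10% biotinylated, detergent-solubilized Sf9 membrane reagent. Streptavidin microbeads enriched the stained cells before FACS sorting into low and high (top ~1%) gates on anti-HA and streptavidin fluorescence. Each clone's polyreactivity label reflects its gate of origin.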
row,Sequence,polyreactivity (PSR sort gate)
1,QVQLVDSGGGLVQAGGSLRLSAASGSTLSGNTMGWYRQAPGKERELVAAINDSGGSTYYADSVKGRFTISRDNAKNTVYLQMNSLKPEDTAVYYCAAETGYAFDYWGQGTQVTVSS,low polyreactivity
2,QVQLVESGGGLVQAGGSLRLSCAASGIIFGGYAMGWYRQAPGKERELVARITSGGSTNYADSVKGRFTISRDNAKNTVYLQMNSLKPEDTAVYYCAARSFWKWGYYYWGQGTQVTVSS,high polyreactivity
3,QVQLVESGGGLVQAGGSLRLSCAASGRILIGYTMGWYRQAPGTERELVARNNYSGGSTYYADSVKGRFTISRDISKNTVYLQMNSLKPEESGDYYCAADVRRGYYTWPPRRVYYWGQGTQVTVSS,high polyreactivity
4,QVQLVESGGGLVQAGGSLRLSCAASGNIFYVYAMGWYRQAPGKERELVAVISRNDGSTYYADSVKGRFTISRDNAKNTVYLQMNSLKPEDTAVYYCNAEWYFWGQGTQVTVSS,low polyreactivity
5,QVQLVESGRGLVQAGGSLRLSCAASGSTFNINAMGWYRQAPGKERELVAAISWSGDITYYADSVKGRFTISRDNAKNTVYLQMNSLKPEDTAVYYCNTDDPGNYWYAEYDYWGQGTQVTVSS,low polyreactivity
6,QVQHVESGGGLVQAGGSLRLSCAASGYISVGYAMGWSRQAPGKERELVAAITESGGSTYYADSVKGRFTISRDNAKNTVYLQMNSLKPEDTAVYYCAADVIYEDRMDYWGQGTQVTVSS,low polyreactivity
7,QVQLVESGGGLVQAGGSLRLSCDASGRILHYYAMGWYRQAPGKERELVATISISGGNTRYADSVKGRFTISRDNAKNTVYLQMNSLKPEDTAVYYCDARPYAGFDNWGQGTQVTVSS,high polyreactivity
8,QVQLVESGGGLVQAGGSLRLSCAASGSTFSRNAMGWYRQAPGKERELVASITRGGSTYADSVKGRFTISRDNAKNTVYLQMNSLKPEDTAVYYCAKSVTGWRGLWYTPRNYYWGQGTQVTVSS,high polyreactivity
9,QVQLVESGGGLVQAGGSLRLSCAASGSTIRFNAMGWYRQAPRKERELVAAISWRGGTTYADSVKGRFTISRDNAKNTVFLQMTSLKPEDTAVYYCAAGLYAQGKRYGYWGHGTQVTVSS,high polyreactivity
10,QVQLVESGGGLVQAGGSLRLSCAASGSTSPFYVMGWYRQAPGKERELVAAISYSGGSTYYADSVKGRFTISRDNAKNTVYLQMISLKPEDTAVYYCAARYRLTYGLYGYWGQGTQVTVSS,high polyreactivity
11,QVQLVESGGGFVQAGGSLRLSCAAYGRTFGRYAMGWYRQAPGKERELVAAIRSGGSTYYADSVKGRFTISRDNAKNTVYLQMNSLKPEDTAVYYCAADIARHLTVFAYYRLDYWGQGTQVTVSS,low polyreactivity
12,QVQLVETGRGLVQAGGSLRLSCAASGLTFKFNAMGWYRQAPGKEREFVAAISRSGGRTYYAESVKGRFTISRDNAKNTVYFQMNSLKPEDTAVYFCADEEIVYYPVLFEYDYWGQGTQVTASS,high polyreactivity
13,QVQLVESGGGLVQAGGSLRLSCAASGITFYLNAMGWYRQAPGKERELVADITVSGGSTYYADSVKGRFTISRDNAKNTVYLQMNSLKREDTAVYYCAADLTISYSQEYYYWGQGTQVTVSS,low polyreactivity
14,QVQLVESGGGLVQAGGSLRLICAASGSIFFPYDMGWYRQAPGKERELVASITRAGSTNYADSVKGRFTISRDNAKNTVYLQMNSLKPEDTAVYYCAARNYRQFEYGYWGQGTQVTVSS,low polyreactivity
15,QVQLVESGGGLVQAGGSLRLSCAASGGIFHGNTMGWYRQAPGKERELVAAISNSGGSTYYADSVKGRFTISRDNAKNTVYLQMNSLKPEDTAVYYCARVGYKLYQYKYDYWGQGTQVTVSS,low polyreactivity
16,QVQLVESGRGLFQAGGSLRLSCAASGSTFYTNAMVWYRQAPGKEWELVATITSSGGITSYADSVKGRFTISRDNAKITVYLHMNSLKPEDTAVYYCAADFGASYDTHEYGYWGQGTQVTVSS,low polyreactivity
17,QVQLVESGGGLVQAGGSLRLSCAASGRIFRYYTMGWYRQAPGKERELVAAITARGTRTYYADSVKGRFTISRDNAKNTVYLQMNSLKPEETSVYYCAADRYIYFAPSMDYWGQGTQVTVSS,high polyreactivity
18,QVQLVESGGCLVQAGGSLRLSCAASGSIFSRYDMGWYRQAPGKEREFVPRITQRGGSTYYADSVKGRFTISRDNAKNTVYLQMNTVKPEDTAVYYCYADHYRRQLAEDYWGQGTQVTVSS,low polyreactivity
19,QVQLVESGGGLVQAGGSLRLSCAASGYIFGVYAMGWYRQAPGKERELVAVITVTGGSTYYADSVKGRFTISRDNAKNTVYLQMNSLKPEDTAVYYCNTLEYLEYDYWGQGTQVTVSS,high polyreactivity
20,QVQLVESGGGLVQAGGSLRLSCAASGYIFTGNAMGWYRQAPGKERELVAAISKSGSRTYYADSVKGRFTISRDNAKNTVYLQMNSLKPEDTAVYYCNAYSARDSELDYWGQGTQVTVSS,high polyreactivity
21,QVQLVEAGGGLVQAGGSLRLSCAASGSIFGSYAMGWYRQAPGKERELVAAISGSGGRTYYADSVKGRFTISRDNAKISVYLQMNSLKPDDTAVYYCAAAYPRVTYNYGYYWGQGTQVTVSS,high polyreactivity
